Target: papain (UniProt P00784)
Experiment: enzyme inhibition kinetics (papain proteolysis progress curves); anti-papain activity from papain proteolysis progress curves with the fluorigenic substrate Z-Phe-Arg-methylcoumarin; apparent (said of the Cysta-tag's constant)

Chain of UniProt P00784 (P00784 134-345): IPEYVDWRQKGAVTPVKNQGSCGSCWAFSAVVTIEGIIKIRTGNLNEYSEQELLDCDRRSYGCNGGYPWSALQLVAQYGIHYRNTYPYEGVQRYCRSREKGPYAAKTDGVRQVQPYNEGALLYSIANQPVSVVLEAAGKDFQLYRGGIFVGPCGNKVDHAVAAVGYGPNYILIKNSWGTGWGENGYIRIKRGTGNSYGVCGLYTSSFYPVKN

| Substance | Kd [nM] |
| --- | --- |
| Cysta-tag (Ala-62-(His)6-Gly-63 variant of SlCYS8) (domain or fragment) | 42 |
| tomato multicystatin domain SlCYS8 (domain or fragment) | 43 |

Source: article PMC4753422
